In patent US20140087995A1 (published 2014):
Numbered stars: 1 amine (or outer) side, 2 acyl side, 3 side chain; on linkers, the order of the positions; unused ones are H or OH. Bridge positions count the residues as written; N and C are the ends. Side chains are listed from the residue outwards. Ends that are not written are not given here. * marks the point of attachment. C20 diacid = O=C(O)CCCCCCCCCCCCCCCCCCC(=O)*; γGlu = O=C(O)[C@H](CCC(=O)[*:2])N[*:1]

T1: human calcitonin receptor (human, UniProt P30988 25-474)
T1 sequence (looked up): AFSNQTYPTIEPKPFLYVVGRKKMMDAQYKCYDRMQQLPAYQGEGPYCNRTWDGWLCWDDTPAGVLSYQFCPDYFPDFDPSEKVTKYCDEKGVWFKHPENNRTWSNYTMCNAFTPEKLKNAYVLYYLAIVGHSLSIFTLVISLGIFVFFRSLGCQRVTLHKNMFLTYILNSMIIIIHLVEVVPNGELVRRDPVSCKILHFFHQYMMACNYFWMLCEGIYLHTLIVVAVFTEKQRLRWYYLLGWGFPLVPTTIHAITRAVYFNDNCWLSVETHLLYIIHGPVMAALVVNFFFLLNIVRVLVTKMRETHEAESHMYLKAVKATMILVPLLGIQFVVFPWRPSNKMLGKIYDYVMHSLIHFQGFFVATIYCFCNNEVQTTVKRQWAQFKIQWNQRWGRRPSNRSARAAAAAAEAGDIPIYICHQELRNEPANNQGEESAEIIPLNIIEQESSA

T2: human amylin receptor (amylin 3(a) receptor: human calcitonin receptor with RAMP-3) (human, UniProt P30988 25-474; O60896 24-148, limits assumed)
T2 construct: whole, on cells; Whole cells in the luciferase assay (Assay II a); also called hAmylin-R; hAmylinR
T2 sequence (looked up) 1: T1 sequence (looked up)
T2 sequence (looked up) 2: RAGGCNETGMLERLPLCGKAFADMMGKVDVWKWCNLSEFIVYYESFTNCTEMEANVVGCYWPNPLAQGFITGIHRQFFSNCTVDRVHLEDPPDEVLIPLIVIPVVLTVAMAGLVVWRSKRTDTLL

B1: N^-1-[(4S)-4-carboxy-4-(19-carboxynonadecanoylamino)butanoyl]-Gly[Arg1,Ala14,Arg17,Pro21,Pro27,Pro34]-h-amylin (peptide)
peptide: {C20 diacid-γGlu}-GRCNTATCATQRLAAFLRHSSPNFGAIPSSTNVGPNTY-NH2
modifications: disulfide 3-8 (inferred)
B2: N^ε1-[(4S)-4-carboxy-4-(19-carboxynonadecanoylamino)butanoyl]-[His14,Arg17,Pro21,Pro27,Pro31,Pro34]-h-amylin (peptide)
peptide: K([γGlu-C20 diacid])CNTATCATQRLAHFLRHSSPNFGAIPSSTPVGPNTY-NH2
modifications: disulfide 2-7; N-terminus assumed
SMILES: CC[C@H](C)[C@H](NC(=O)[C@H](C)NC(=O)CNC(=O)[C@H](Cc1ccccc1)NC(=O)[C@H](CC(N)=O)NC(=O)[C@@H]1CCCN1C(=O)[C@H](CO)NC(=O)[C@H](CO)NC(=O)[C@H](Cc1c[nH]cn1)NC(=O)[C@H](CCCNC(=N)N)NC(=O)[C@H](CC(C)C)NC(=O)[C@H](Cc1ccccc1)NC(=O)[C@H](Cc1c[nH]cn1)NC(=O)[C@H](C)NC(=O)[C@H](CC(C)C)NC(=O)[C@H](CCCNC(=N)N)NC(=O)[C@H](CCC(N)=O)NC(=O)[C@@H](NC(=O)[C@H](C)NC(=O)[C@@H]1CSSC[C@H](NC(=O)[C@@H](N)CCCCNC(=O)CC[C@H](NC(=O)CCCCCCCCCCCCCCCCCCC(=O)O)C(=O)O)C(=O)N[C@@H](CC(N)=O)C(=O)N[C@@H]([C@@H](C)O)C(=O)N[C@@H](C)C(=O)N[C@@H]([C@@H](C)O)C(=O)N1)[C@@H](C)O)C(=O)N1CCC[C@H]1C(=O)N[C@@H](CO)C(=O)N[C@@H](CO)C(=O)N[C@H](C(=O)N1CCC[C@H]1C(=O)N[C@H](C(=O)NCC(=O)N1CCC[C@H]1C(=O)N[C@@H](CC(N)=O)C(=O)N[C@H](C(=O)N[C@@H](Cc1ccc(O)cc1)C(N)=O)[C@@H](C)O)C(C)C)[C@@H](C)O
B3: N^ε1-[(4S)--4-carboxy-4-(19-carboxynonadecanoylamino)butanoyl]-[Glu14,Arg17,Pro21,Pro27,Pro37]-h-amylin (peptide)
peptide: K([γGlu-C20 diacid])CNTATCATQRLAEFLRHSSPNFGAIPSSTNVGSNTP-NH2
modifications: disulfide 2-7; N-terminus assumed
SMILES: CC[C@H](C)[C@H](NC(=O)[C@H](C)NC(=O)CNC(=O)[C@H](Cc1ccccc1)NC(=O)[C@H](CC(N)=O)NC(=O)[C@@H]1CCCN1C(=O)[C@H](CO)NC(=O)[C@H](CO)NC(=O)[C@H](Cc1c[nH]cn1)NC(=O)[C@H](CCCNC(=N)N)NC(=O)[C@H](CC(C)C)NC(=O)[C@H](Cc1ccccc1)NC(=O)[C@H](CCC(=O)O)NC(=O)[C@H](C)NC(=O)[C@H](CC(C)C)NC(=O)[C@H](CCCNC(=N)N)NC(=O)[C@H](CCC(N)=O)NC(=O)[C@@H](NC(=O)[C@H](C)NC(=O)[C@@H]1CSSC[C@H](NC(=O)[C@@H](N)CCCCNC(=O)CC[C@H](NC(=O)CCCCCCCCCCCCCCCCCCC(=O)O)C(=O)O)C(=O)N[C@@H](CC(N)=O)C(=O)N[C@@H]([C@@H](C)O)C(=O)N[C@@H](C)C(=O)N[C@@H]([C@@H](C)O)C(=O)N1)[C@@H](C)O)C(=O)N1CCC[C@H]1C(=O)N[C@@H](CO)C(=O)N[C@@H](CO)C(=O)N[C@H](C(=O)N[C@@H](CC(N)=O)C(=O)N[C@H](C(=O)NCC(=O)N[C@@H](CO)C(=O)N[C@@H](CC(N)=O)C(=O)N[C@H](C(=O)N1CCC[C@H]1C(N)=O)[C@@H](C)O)C(C)C)[C@@H](C)O
notes: also called compound 12
B4: N^ε1-[(4S)-4-carboxy-4-(19-carboxynonadecanoylamino)butanoyl]-[His14,Arg17,Pro21,Pro27,Pro34,Pro37]-h-amylin (peptide)
peptide: K([γGlu-C20 diacid])CNTATCATQRLAHFLRHSSPNFGAIPSSTNVGPNTP-NH2
modifications: disulfide 2-7; N-terminus assumed
SMILES: CC[C@H](C)[C@H](NC(=O)[C@H](C)NC(=O)CNC(=O)[C@H](Cc1ccccc1)NC(=O)[C@H](CC(N)=O)NC(=O)[C@@H]1CCCN1C(=O)[C@H](CO)NC(=O)[C@H](CO)NC(=O)[C@H](Cc1c[nH]cn1)NC(=O)[C@H](CCCNC(=N)N)NC(=O)[C@H](CC(C)C)NC(=O)[C@H](Cc1ccccc1)NC(=O)[C@H](Cc1c[nH]cn1)NC(=O)[C@H](C)NC(=O)[C@H](CC(C)C)NC(=O)[C@H](CCCNC(=N)N)NC(=O)[C@H](CCC(N)=O)NC(=O)[C@@H](NC(=O)[C@H](C)NC(=O)[C@@H]1CSSC[C@H](NC(=O)[C@@H](N)CCCCNC(=O)CC[C@H](NC(=O)CCCCCCCCCCCCCCCCCCC(=O)O)C(=O)O)C(=O)N[C@@H](CC(N)=O)C(=O)N[C@@H]([C@@H](C)O)C(=O)N[C@@H](C)C(=O)N[C@@H]([C@@H](C)O)C(=O)N1)[C@@H](C)O)C(=O)N1CCC[C@H]1C(=O)N[C@@H](CO)C(=O)N[C@@H](CO)C(=O)N[C@H](C(=O)N[C@@H](CC(N)=O)C(=O)N[C@H](C(=O)NCC(=O)N1CCC[C@H]1C(=O)N[C@@H](CC(N)=O)C(=O)N[C@H](C(=O)N1CCC[C@H]1C(N)=O)[C@@H](C)O)C(C)C)[C@@H](C)O
B5: N^ε1-[(4S)-4-carboxy-4-[[(4S)-4-carboxy-4-(19-carboxynonadecanoylamino)butanoyl]amino]butanoyl]-[Glu14,Arg17,Pro21,Pro27,Pro34,Glu35,Pro37]-h-amylin (peptide)
peptide: K([γGlu-γGlu-C20 diacid])CNTATCATQRLAEFLRHSSPNFGAIPSSTNVGPETP-NH2
modifications: disulfide 2-7; N-terminus assumed
SMILES: CC[C@H](C)[C@H](NC(=O)[C@H](C)NC(=O)CNC(=O)[C@H](Cc1ccccc1)NC(=O)[C@H](CC(N)=O)NC(=O)[C@@H]1CCCN1C(=O)[C@H](CO)NC(=O)[C@H](CO)NC(=O)[C@H](Cc1c[nH]cn1)NC(=O)[C@H](CCCNC(=N)N)NC(=O)[C@H](CC(C)C)NC(=O)[C@H](Cc1ccccc1)NC(=O)[C@H](CCC(=O)O)NC(=O)[C@H](C)NC(=O)[C@H](CC(C)C)NC(=O)[C@H](CCCNC(=N)N)NC(=O)[C@H](CCC(N)=O)NC(=O)[C@@H](NC(=O)[C@H](C)NC(=O)[C@@H]1CSSC[C@H](NC(=O)[C@@H](N)CCCCNC(=O)CC[C@H](NC(=O)CC[C@H](NC(=O)CCCCCCCCCCCCCCCCCCC(=O)O)C(=O)O)C(=O)O)C(=O)N[C@@H](CC(N)=O)C(=O)N[C@@H]([C@@H](C)O)C(=O)N[C@@H](C)C(=O)N[C@@H]([C@@H](C)O)C(=O)N1)[C@@H](C)O)C(=O)N1CCC[C@H]1C(=O)N[C@@H](CO)C(=O)N[C@@H](CO)C(=O)N[C@H](C(=O)N[C@@H](CC(N)=O)C(=O)N[C@H](C(=O)NCC(=O)N1CCC[C@H]1C(=O)N[C@@H](CCC(=O)O)C(=O)N[C@H](C(=O)N1CCC[C@H]1C(N)=O)[C@@H](C)O)C(C)C)[C@@H](C)O
B6: N^ε1-[(4S)-4-carboxy-4-[[(4S)-4-carboxy-4-(19-carboxynonadecanoylamino)butanoyl]amino]butanoyl]-[Glu14,Arg17,Pro21,Pro27,Pro37]-h-amylin (peptide)
peptide: K([γGlu-γGlu-C20 diacid])CNTATCATQRLAEFLRHSSPNFGAIPSSTNVGSNTP-NH2
modifications: disulfide 2-7; N-terminus assumed
SMILES: CC[C@H](C)[C@H](NC(=O)[C@H](C)NC(=O)CNC(=O)[C@H](Cc1ccccc1)NC(=O)[C@H](CC(N)=O)NC(=O)[C@@H]1CCCN1C(=O)[C@H](CO)NC(=O)[C@H](CO)NC(=O)[C@H](Cc1c[nH]cn1)NC(=O)[C@H](CCCNC(=N)N)NC(=O)[C@H](CC(C)C)NC(=O)[C@H](Cc1ccccc1)NC(=O)[C@H](CCC(=O)O)NC(=O)[C@H](C)NC(=O)[C@H](CC(C)C)NC(=O)[C@H](CCCNC(=N)N)NC(=O)[C@H](CCC(N)=O)NC(=O)[C@@H](NC(=O)[C@H](C)NC(=O)[C@@H]1CSSC[C@H](NC(=O)[C@@H](N)CCCCNC(=O)CC[C@H](NC(=O)CC[C@H](NC(=O)CCCCCCCCCCCCCCCCCCC(=O)O)C(=O)O)C(=O)O)C(=O)N[C@@H](CC(N)=O)C(=O)N[C@@H]([C@@H](C)O)C(=O)N[C@@H](C)C(=O)N[C@@H]([C@@H](C)O)C(=O)N1)[C@@H](C)O)C(=O)N1CCC[C@H]1C(=O)N[C@@H](CO)C(=O)N[C@@H](CO)C(=O)N[C@H](C(=O)N[C@@H](CC(N)=O)C(=O)N[C@H](C(=O)NCC(=O)N[C@@H](CO)C(=O)N[C@@H](CC(N)=O)C(=O)N[C@H](C(=O)N1CCC[C@H]1C(N)=O)[C@@H](C)O)C(C)C)[C@@H](C)O
notes: also called compound 13

Molecular target: T1, human calcitonin receptor
Assay: cell-based or functional assay

Binder | Ratio hCT/hAmylin funct. [ratio] | hCTR funct. EC50 (pM)
B1 | 2.1 | –
B2 | 4.9 | –
B3 | 1.8 | –
B4 | 0.8 | –
B5 | 0.8 | 102
B6 | 2.2 | –

Molecular target: T2, human amylin receptor (amylin 3(a) …)
Assay: SPA competition binding on membranes of BHK cells with human calcitonin receptor + RAMP-3; displacement of 125I-rat amylin (Assay V)
Procedure, shortened: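 Membranes from BHK Amylin 3(a)/CRE-luc cells (35 ng/μL final) were mixed with SPA beads and test compounds in 50 mM Hepes pH 7.4 with 1 mM CaCl2, 5 mM MgCl₂, 0.1% OA and 0.02% Tween20. Incubation ran 120 min at 25° C with shaking; IC₅₀ came from one-site competition fitting.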

Binder | IC50 [nM]
B1 | 0.114
B2 | 0.082
B3 | 0.142
B4 | 0.131
B5 | 0.533
B6 | 0.264
